Key:
[1] = target: T1, S protein of PEDV-CV777 (G1 PEDV) (Porcine epidemic diarrhea virus, CV777 …, UniProt H2DFZ6); assay: immunostaining of cells or tissue; ICC (HRP/DAB) and IFA (FITC) on PEDV-infected Vero cells fixed with 80% acetone; scFv 5 ug/mL in PBS for 1 h, detected by anti-V5 antibody; PBS blank as background control; conditions: one partner purified
T1 construct: spike (S) protein of porcine epidemic diarrhea virus strain CV777; stood on infected cells and on purified virions; The antigen in the assays was the infected cell or the whole virion; also called G1 PEDV S protein; historic vaccine strain; source: PEDV-CV777 in infected Vero cells (acetone-fixed); purified PEDV-CV777 virions

[2] = target: T2, ectodomain of the S protein of PEDV (GeneBank no. HC070225-S) (Porcine epidemic diarrhea virus, …, UniProt A0A1Y0DDF5); assay: retention on a 100 kDa MWCO spin column (called immunoprecipitation pull-down assay); 25 pmol S protein with 125 pmol scFv, 37 C for 3 h; 100 kDa MWCO filtration, 10 washes with dPBS; SDS-PAGE with Coomassie; control of scFv alone; conditions: both partners purified
T2 construct: spike (S) glycoprotein of porcine epidemic diarrhea virus, ectodomain; also called PEDV S protein; purified trimeric PEDV S glycoprotein; source: Expi293F cells, secreted, purified from the culture medium

T1 sequence (Q91AV1 26-1383): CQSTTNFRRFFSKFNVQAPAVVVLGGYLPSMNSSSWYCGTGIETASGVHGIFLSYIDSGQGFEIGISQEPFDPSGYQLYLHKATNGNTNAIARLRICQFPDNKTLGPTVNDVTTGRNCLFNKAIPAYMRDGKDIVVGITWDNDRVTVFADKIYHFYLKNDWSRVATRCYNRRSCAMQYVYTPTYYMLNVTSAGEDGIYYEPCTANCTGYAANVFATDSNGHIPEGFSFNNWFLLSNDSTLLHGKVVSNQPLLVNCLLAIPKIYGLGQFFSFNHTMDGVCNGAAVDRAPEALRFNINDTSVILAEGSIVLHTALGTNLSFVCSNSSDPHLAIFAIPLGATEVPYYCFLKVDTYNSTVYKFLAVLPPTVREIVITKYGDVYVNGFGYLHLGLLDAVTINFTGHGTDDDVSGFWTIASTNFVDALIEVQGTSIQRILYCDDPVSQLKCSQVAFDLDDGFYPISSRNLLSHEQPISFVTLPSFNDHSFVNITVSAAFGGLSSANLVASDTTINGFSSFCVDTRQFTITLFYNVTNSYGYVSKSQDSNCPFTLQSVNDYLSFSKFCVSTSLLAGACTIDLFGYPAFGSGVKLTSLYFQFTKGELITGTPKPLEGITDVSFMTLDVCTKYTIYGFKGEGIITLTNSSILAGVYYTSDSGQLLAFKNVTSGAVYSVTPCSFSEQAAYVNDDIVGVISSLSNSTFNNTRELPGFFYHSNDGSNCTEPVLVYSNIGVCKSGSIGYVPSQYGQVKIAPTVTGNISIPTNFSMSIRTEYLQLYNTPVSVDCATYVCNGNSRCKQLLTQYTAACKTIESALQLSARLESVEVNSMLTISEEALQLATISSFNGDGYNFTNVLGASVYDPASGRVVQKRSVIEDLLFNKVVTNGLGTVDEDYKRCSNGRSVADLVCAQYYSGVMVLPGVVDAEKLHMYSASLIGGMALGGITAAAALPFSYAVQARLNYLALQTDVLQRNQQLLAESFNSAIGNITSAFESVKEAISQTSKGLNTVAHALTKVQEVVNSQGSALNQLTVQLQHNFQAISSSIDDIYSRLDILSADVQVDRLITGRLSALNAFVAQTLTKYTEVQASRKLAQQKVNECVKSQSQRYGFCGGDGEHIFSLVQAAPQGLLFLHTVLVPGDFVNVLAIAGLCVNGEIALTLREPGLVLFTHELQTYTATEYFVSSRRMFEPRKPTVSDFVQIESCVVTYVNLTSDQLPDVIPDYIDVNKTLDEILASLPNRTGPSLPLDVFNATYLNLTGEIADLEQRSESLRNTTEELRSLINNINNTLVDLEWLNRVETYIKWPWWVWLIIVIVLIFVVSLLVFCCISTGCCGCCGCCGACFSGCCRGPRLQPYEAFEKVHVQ

B1: recombinant scFv of the PEDV S1^A-specific neutralizing monoclonal antibody E10E-1-10 (scFv, V domains shown)
VH: QVQLQQSGAELARPGTSVKMSCKASGYTFTNYMMHWIKQRPGQGLEWIGYINPSTGYTNYNQKFKDKATLTADKSSSTAYVQLNILTSEDSAVYYCATSTLITGDYWGQGTTLTVSS
VL: NIVLTQSPKSMSMSVGERVTLSCKASENVGTYVSWYQQKPKQSPKLLIYGTFNRYTGVPDRFTGSGSATDFTLTISSVQAEDLADYHCGQSYNYPFTFGSGTKLEIK
notes: (G4S)3 linker; About 30 kDa; The order VL, linker, VH follows the order in which the methods name the regions; also called E10E-1-10 scFv; anti-PEDV S1^A scFv; source: Expi293F cells, transfected, secreted; purified from the supernatant (IMAC on cobalt resin, SEC on Superdex 75 Increase)
B1: binds [1]; binds [2].

— publication PMC8402611, “Generation and Characterization of a Spike Glycoprotein Domain A-Specific Neutralizing Single-Chain Variable Fragment against Porcine Epidemic Diarrhea Virus” (Vaccines, 2021)
